Source: the DeepSol protein solubility set

Assay: soluble on expression in E. coli; label from the status in PepcDB or PDB records

Sequence | soluble on expression in E. coli
MSFEEKTFKWLMNQKFYHGYLPREDLPYVLKKKGDFIFRVTERTVGKEQKKDIVLSIAWPTESVAMIDTKDIKNYLIERSANSVWLDLKISFHSIDALYNHYRKNELVHPNLRIKLGRPICLFFWEFKHSQINLIKKVGKGAYGEVFKGTVTRGNKTFNGAIKAMRKDLDAGNEKMKEVMAEARLMRSLNHPNIVRCRGIAVLEQPVYIVIEFINGGGLDSYLKKNSQTLTMDQKNRMAISAAWGIEFMHSHDIIHRDIAARNCLYDNKNLVKLSDFGLSRKGSVYRMKKAMKMPTKWLAPESLTTFTFSGASDVYTFGVLLYEIYTCQEPYLAVKAGEAKRYILSGAFPNFTKQAPPELNEIVKKSIYQLDPAKRDTMKVIVKKLETWLDVELVLDENEKPDIDPESNRFNGNMPIRVDSSTKKMRNDTVCIPPPETATVALPNSLPPITVSARSKNSRKSTLKRKKKKTSKDSSMTTTTTNTNESEPPADGQVISSETMSVANKMVSDAKGGSPEMLTPSLEELKPSSQENETFLNEKNSTAKN | not soluble
MGSDKIHHHHHHMIIAVSGKGGVGKTAFTTLLIKALSKKTNSILVVDADPDSNLPETLGVEVEKTVGDIREELKKLVERDEIPAGMTKLDYLRSKIFEILVETKYYDLLVMGRPEGSGCYCSVNNWLRQIIDNLAKDYEFVVIDTEAGLEHLSRRTTQNVDVMIVITDASKRGLGTAKRIKKLANELEVKFKDIYVVANKVKPEYEELIDNYAKELGLNLIGKLPYNKEIAEYDLKGIPLWNLPENNEVYKKVEEIAEKIINKKF | not soluble
MKAIAGLTVNIKQGEFVYVVGPSGAGKSTFIKMMYREEKPSTGSINVNGLVIETLAERDVPYFRRQLGVIFQDFKLLPKLTVYENVAFALEVIEEEPDAIRERVTEVLGLVGLEDRADALPSELSGGEQQRVAIARAIVNKPKVVIADEPTGNLDIETALDIMKIFTRINERGTTIVMATHNADIVNTIRHRVIAIEGGKIVRDEIEGGYGYEG | not soluble
MGSDKIHHHHHHMQKLTLKEVQAKAVEILVYIDNICRSNNLHYTLFYGTLIGVERHKGFIPWDDDIDIVMPRPDYELLIKILKNDSNYQLLSFETRKHFRYPFAKLVDPNTVAHSKQYFGGEDKDLGVFVDIFPIDGIPDTQKERNELRKITEQYRLNLMDTLGLSYARSFHLSKALIKLITRYPNHFKVKKVGNNQYWRDLYQTEAKKTPFGATKHCGYLEWIHIDWGVFPNEWFLEYEDVEFEGHKFMAIKNRKQFLTLRYGDYMEMPPVEERITHHPYDFYQK | not soluble
AEICLITGTPGSGKTLKMVSMMANDEMFKPDENGIRRKVFTNIKGLKIPHTYIETDAKKLPKSTDEQLSAHDMYEWIKKPENIGSIVIVDEAQDVWPARSAGSKIPENVQWLNTHRHQGIDIFVLTQGPKLLDQNLRTLVRKHYHIASNKMGMRTLLEWKICADDPVKMASSAFSSIYTLDKKVYDLYESAEVHTVNKVKRSK | not soluble
GTIITVTAQANEKNTRTVSTAKGDKKIISVPLFEKEKGSNVKVAYGSAFLPDFIQLGDTVTVSGRVQAKESGEYVNYNFVFPTVEKVFITNDNSSQSQAKQDLFGGSEPIEVNSEDLPF | soluble
MRIWIDADACPKAAKELVCKFALKRKLEVWMVAGQPQVKPPFACVRLVVVESGMDAADDYLVEQAEPGDLAICSDVPLADRLIKKQVAALDPRGREFDARNMGDKLAMRNLMADLRDQGQMGGGQAPYGERDRQAFANALDRLLTRLQREADLRASQPHR | not soluble
AMMIGIIGAMEEEVTILKNKLTQLSEISVAHVKFYTGILKDREVVITQSGIGKVNAAISTTLLINKFKPDVIINTGSAGALDESLNVGDVLISDDVKYHDADATAFGYEYGQIPQMPVAFQSSKPLIEKVSQVVQQQQLTAKVGLIVSGDSFIGSVEQRQKIKKAFPNAMAVEMEATAIAQTCYQFNVPFVVVRAVSDLANGEAEMSFEAFLEKAAVSSSQTVEALVSQL | soluble
MATLDHLLEELFEACSVFDKFPVSFNRTLIDELVDCLDFEEPTLTVIRKFVRNLDFEGKLAPIRMVIRLLDAAIKNNKFRNEDDLLLEFIQKSEAILSRPRNRLLLQDLFNFYTNPVVFAVREPESWLVVIRWVMNEFADEYLSCFHIDLFVKFICQIPSAAEARRLNIISEAISPDLVGSFSARIIYNYAQDLTIDECNTFVNNFRLSSLGYRWPAIRVLLKMRELHPSLVIPLAPASWTEENRRVDVICRLLFPMDFDTLKMMDVQLENVEALVDSVLDSPVDIDLKEKMLDHMNERQFEKYFDELLSFAKIESNDVNIHVTSALRSLPQHATRQKVAQLFEALGDKILDLALILNLSLAYGSNAFDFPEFEKFKDRYSKLVSDAIKAPVGESNAERIITVLECMKLFPCFLPVKADETAVYLDFSNSLTLNEKGAREVPVKTTGHEKMHVTVLLTARADGYKCRPYVLLPRTRPDKEIAARFKNSLQLSWCNRTFFNDEVTEDYLNTIIGPPFFGKRLLAWDAFRCHISDATKRVLKNLKVDTAVVPGGCTKFVQAPDVYWNSPFKASIRRSYEDWMVHGQKSFTKSNNMRPPSMLQYLEWIENAWNDLPKDLILKSFKGCALTIATDGSEDNQIHCFAPNGSIPSGLDLLNSTRIENSLVDLVQDIGIDESQEEGNESDNSIISVG | not soluble
MLDSYPGHFLPNTEAPTEEEALIALLALGGYDPDNMDGKPLTMESAVEILRKDGSALASLEEETILNLKETYVNSVGLLGKYVPKVYNGDILFFRSTVIPDWFDPISPNTWLNYLDGQIVQHDIDCRHKDLCQPGPLTEIGQVLAKYLQNKKGVSRV | not soluble
MSLNKAMQEVNLEDSLKFFEQAANQPAALLKVQTQWWEQQLQIWQKVVLESKIQSIMEAEKGDKRFSHEAWQQDPFFNFIKQSYLLFSKTYLDTINAIEGLDEKAKERILFFSRQMINALSPSNFIATNPELLRLTLEKNGENLIAGLEQLKEDVASSADILKIRMTNNNAFRLGEDVANTPGEVVFKNEVFELIQYKPLTEQVAVTPLLIVPPFINKYYILDLREKNSMVRWLVEQGHSVFMISWRNPGAAQAQLNFEDYVLEGVVKAVNAIESITGQEQINAAGYCIGGTVLATTIAYYAAKRMKKRIKTASFFTTLLDFSQPGEVGAYINDTIIRAIELQNNAKGYMDGRSLSVTFSLLRENSLYWNYYVDNYLKGQSPVDFDLLYWNSDSTNVAGACHNFLLRELYLENKLVQDKGVKVGGVWIDLDKIKVPSYFISTKEDHIALWQGTYRGALRTGGNKTFVLGESGHIAGIVNHPDKRKYGYWVNDTLDDSAEDWLETAQHREGSWWVHWNEWLNGFADGSKVEPYPLGNADYPVLYSAPGEYVKQVLPIQEEGHHHHHH | soluble
MGHHHHHHSHMGTVKQLLLFSETEGNPCFLDICGNFLVVGTDLAHFKSFDLSRREAKAHCSCRSLAELVPGVGGIASLRCSSSGSTISILPSKADNSPDSKICFYDVEMDTVTVFDFKTGQIDRRETLSFNEQETNKSHLFVDEGLKNYVPVNHFWDQSEPRLFVCEAVQETPRSQP | soluble
MGSSHHHHHHSSGRENLYFQGHMEKDRKRILITGGAGFVGSHLTDKLMMDGHEVTVVDNFFTGRKRNVEHWIGHENFELINHDVVEPLYIEVDQIYHLASPASPPNYMYNPIKTLKTNTIGTLNMLGLAKRVGARLLLASTSEVYGDPEVHPQSEDYWGHVNPIGPRACYDEGKRVAETMCYAYMKQEGVEVRVARIFNTFGPRMHMNDGRVVSNFILQALQGEPLTVYGSGSQTRAFQYVSDLVNGLVALMNSNVSSPVNLGNPEEHTILEFAQLIKNLVGSGSEIQFLSEAQDDPQKRKPDIKKAKLMLGWEPVVPLEEGLNKAIHYFRKELEYQANNQGS | soluble
MGSDKIHHHHHHMSLCYEEALFLEKDLERLKALRTIAPMNEILDHAEVAALAEGIGKAVLGETITQVIDDYRKQLLGDKSFAASMSHLSRQEITLHLVQELKDKLDAQDSTCLKKLINATGIVLHTNLGRAPLPDSAIGLIQEVNEGYSNLEFDLETGNRGSRHTHIEPLITRLTGAESAMVVNNNAAAVFISLNTLAKQRDVIISRGQQVEIGGSFRIPDIIASSGCTMIEVGTTNKTKPDDYAKAITENTAVLLKVHTSNYKISGFTEEVPLQDLVELGKIKNVLVMEDLGSGCLYDLSKIGLPHEPTVQEVIAGGADLVTFSGDKLLGGPQIGVIAGKKALIDKIKKNSFARIVRCDKSSIAALTAVLKLYMNPEKALAQIPALNMLALKEADLLLRAEELERQLQAALGERCQVEIVDVHDEAGGGSLPDVLLKGKAVSLTIDGLSANRLQELLRQEPIPIICRIVKDKVLLNVRTMSEKEFPLITQTMQNIVG | not soluble
MRDVLEVLEFPRVRALLAERAKTPLGRELALALAPLPREEAEKRHELTGEALSYPYALPEAGTLREAYGRALAGARLSGPELLKAAKALEEAMALKEELLPLKNALSQVAEGIGDHTPFLERVRKALDEEGAVKDEASPRLAQIRRELRPLRQQILDRLYALMDRHREAFQDRFVTLRRERYCVPVRAGMAQKVPGILLDESESGATLFIEPFSVVKLNNRLQALRLKEEEEVNRILRDLSERLAKDEGVPKTLEALGLLDLVQAQAALARDLGLSRPAFGERYELYRAFHPLIPDAVRNSFALDEKNRILLISGPNMGGKTALLKTLGLAVLMAQSGLFVAAEKALLAWPDRVYADIGDEQSLQENLSTFAGHLRRLREMLEEATSHSLVLIDELGSGTDPEEGAALSQAILEALLERGVKGMVTTHLSPLKAFAQGREGIQNASMRFDLEALRPTYELVLGVPGRSYALAIARRLALPEEVLKRAEALLPEGGRLEALLERLEAERLALEAERERLRRELSQVERLRKALAEREARFEEERAERLKALEEEVRAELLKVEAELKALKEKARTEGKRDALRELMALRERYAKKAPPPPPPPGLAPGVLVEVPSLGKRGRVVELRGEEVLVQVGPLKMSLKPQEVKPLPEAEPGKPLLAKPRREVKEVDLRGLTVAEALLEVDQALEEARALGLSTLRLLHGKGTGALRQAIREALRRDKRVESFADAPPGEGGHGVTVVALRP | soluble
GPLGSNMDAAEVEFLAEKELVTIIPNFSLDKIYLIGGDLGPFNPGLPVEVPLWLAINLKQRQKCRLLPPEWMDVEKLEKMRDHERKEETFTPMPSPYYMELTKLLLNHASDNIPKADEIRTLVKDMWDTRIAKLRVSADSFVRQQEAHAKLDNLTLMEINTSGTFLTQALNHMYKLRTNLQPLESTQSQDF | soluble
MSPGERFLDWLKRLQGQKAWTAARAAFRRSLAFPPGAYPRAMPYVEPFLAKGDWRQEEREAHYLVAALYALKDGDHQVGRTLARALWEKAQGSASVEKRFLALLEADRDQIAFRLRQAVALVEGGIDFARLLDDLLRWFSPERHVQARWAREYYGAGASEEEKKKEVEA | soluble
MCDSHQKEEDNANTSERALFFNYHEFSYSFYEDLGSEDAKPTEHDEDHKLCITHFPNVYAARGSAEFQVTRVVRVPRRFDESRSSLETPQFSTQLPGSEPAAIVGDDGTSFVRCGRYDIGDHVFGCSSVSPLSEYLSAAELAEVVHRVNGFLLREEGEVFGWRNLSGLLLDMLTGGLWSWVLGPLLSRPVFQESLALEQYVAQLNSPGGLLHERGVRLVLPRRSGCLSLDFVVPRPK | not soluble
MQKSKRNAKKKAVSTREKSARSSRGTNKSQRSARSKMAKPRTAETREDAYSCHRTMEEKSTNQQYSALSVRSETTSKVKKLPSKLDASLSARKKGKKESNEEDKKMRDSERQKREKKEVPKEMRQSMMGSVFEEIEGPVSPAPLEKDENKMEWKIDVDPVVLTGDQRMSDVLGKMKDLKKNSGWKKCKVLKANEKTPDNDDEPTEESIYLSARVLQLVKMESLISKEVSKEDQEILRGYCRSNDHKDKVEPIFEAIAVSILEKVASKNEFIRNVSIPGQLRMFAVDENKSKFSTMALLIVRCDLFYYSWNKPALDDEDQLDPTWANMTRRPSVTPPDSQ | not soluble
